# According to publication PMC4422724:
# Tests used:
# [1] = molecular target: G146V mutant Dictyostelium actin (Dictyostelium); assay: pyrene fluorescence depolymerization assay; 2 μM Mg-actin (20% pyrene-labeled) polymerized for 12 min at 22°C with 100 mM KCl, 2 mM MgCl2, 0.5 mM ATP; depolymerization induced with 30 μM latrunculin A; double-exponential fit; filament to monomers
# [2] = molecular target: G146V mutant Dictyostelium actin (Dictyostelium); assay: co-sedimentation; critical concentration by pelleting assay: 0.5-3.0 μM actin polymerized in F-buffer (10 mM HEPES pH 7.4, 2 mM MgCl2, 100 mM KCl, 0.5 mM ATP, 0.5 mM DTT) for 3 hr at 21°C, ultracentrifuged, protein in pellets determined; monomer to filament
# [3] = molecular target: G146V mutant Dictyostelium actin (Dictyostelium); assay: pyrene fluorescence depolymerization assay; 2 μM Mg-actin (20% pyrene-labeled) polymerized overnight at 22°C with 100 mM KCl, 2 mM MgCl2, 0.5 mM ATP; depolymerization induced with 30 μM latrunculin A; double-exponential fit; filament to monomers
substance,measurement,setting,value
G146V mutant Dictyostelium actin (natural protein),"τf (depolymerization, fast-depolymerization population)",[1],20.1 min
same,"τs (depolymerization, slow-depolymerization population)",[1],169 min
same,critical concentration,[2],0.51 µM
same,"τf (depolymerization, fast-depolymerization population)",[3],27.4 min
same,"τs (depolymerization, slow-depolymerization population)",[3],98 min
